Results as given in article doi:10.1101/669069.
“And” between values parts separate entries of the source, which are not always exact repeats. Equal entries are not always repeated.

Key:
[1] = stopped-flow tryptophan fluorescence, urea-induced dissociation kinetics; settings: other: stopped-flow tryptophan fluorescence
[2] = target: Methionine S-adenosyltransferase (MAT) from U. urealiticum (U. urealiticum); experiment: native MS
[3] = target: Methionine S-adenosyltransferase (MAT) from U. urealiticum (U. urealiticum); experiment: crystal structure
[4] = target: Methionine S-adenosyltransferase (MAT) from U. urealiticum (U. urealiticum); experiment: SEC-MALS
[5] = target: Methionine S-adenosyltransferase (MAT) from U. urealiticum (U. urealiticum); experiment: crystal structure; remark: listed apart in the source
[6] = target: Methionine S-adenosyltransferase (MAT) from U. urealiticum (U. urealiticum); experiment: SEC-MALS; remark: listed apart in the source

Row | stoichiometry N [2] | stoichiometry N [3] | stoichiometry N [4] | stoichiometry N [5] | stoichiometry N [6] | Substance | kobs of urea-induced tetramer dissociation (3 M urea, with SAM) [1]
1 | – | – | – | – | – | Methionine S-adenosyltransferase (MAT) from U. urealiticum | kobs ∼ 0.1sec^-1
2 | 4 and 2 | 4 | 4 and 2 | 4 | 4 | Methionine S-adenosyltransferase (MAT) from U. urealiticum (enzyme) | –
